Consider 83 variants from the RNAGym collection of RNA variant scans (doi:10.1101/gr.219683.116).

Sequences and labels used below:
B1: mRNA-splicing (parent)
chain: AGUUGCUGCUGGGAGCUCCAGCACAGUGAAAUGGACAGAAGGGCAGAGCAA

In the data set the parent is B1. The experiment in a line: exon inclusion enrichment index; higher = more inclusion; WT1 exon 5 minigene, HEK293.
Take G5U G8U C9U U17A C18G: the “exon inclusion enrichment index” value worked out at 0.0888.

For the variant U17C C18A, the “exon inclusion enrichment index” value is 1.29.

As for G5C C6A U7C G8A U10A A39G A40U, the “exon inclusion enrichment index” value is 0.0129.

Regarding G5U G8U C9U G41A, the “exon inclusion enrichment index” value stood at 0.0762.

In the case of G5U G8U C9U G28A A29C, the “exon inclusion enrichment index” value worked out at 0.0709.

In the case of G5C C6U G8C C9U U10C G21U C22U, the “exon inclusion enrichment index” value was 0.512.

Take G5A U7C G8A U10C A39U A40U: the “exon inclusion enrichment index” value was 1.02.

For G5U G8U C9U G26A U27C, the “exon inclusion enrichment index” value worked out at 0.838.

As for G5A C6G U7G C9A C18G, the “exon inclusion enrichment index” value worked out at 0.00165.

As for C6A U7C C9A U10C U17G C18G, the “exon inclusion enrichment index” value worked out at 2.57.

C6A U7A G8A U10A: the “exon inclusion enrichment index” value was found to be 0.0891.

Take G5A U7C G8A U10C G42U: the “exon inclusion enrichment index” value was 2.55.

As to G5C C6G U7C G11A, the “exon inclusion enrichment index” value stood at 0.993.

As for G5A C6U U7A G8U C9A G26U U27C, the “exon inclusion enrichment index” value came to 0.536.

Take G5C C6A U7C G8A U10A G41U: the “exon inclusion enrichment index” value came to 0.102.

C6G U7A C9A U10C: the “exon inclusion enrichment index” value stood at 0.641.

Regarding G5C C6G U7G G8C C9U U10C, the “exon inclusion enrichment index” value worked out at 2.15.

For G43C, the “exon inclusion enrichment index” value came out at 0.209.

Take G5C C6U G8C C9U U10C A14U G15U: the “exon inclusion enrichment index” value amounted to 0.556.

On to G5A U7C G8A U10C U27A G28A, for which the “exon inclusion enrichment index” value stood at 2.27.

In the case of G5C C6U G8C C9U U10C U32C, the “exon inclusion enrichment index” value amounted to 3.26.

Turning to G5A C6U U7A G8U C9A C16U, the “exon inclusion enrichment index” value is 0.0512.

Take G5C C6A U7C G8A U10A G11U G12U: the “exon inclusion enrichment index” value was 0.037.

Consider G5A C6U U7A G8U C9A C36G A37U, for which the “exon inclusion enrichment index” value amounted to 0.0196.

On to A39C A40U, for which the “exon inclusion enrichment index” value came to 0.0469.

For G5A C6U U7A G8U C9A C22G A23C, the “exon inclusion enrichment index” value amounted to 0.0334.

On to C6A U7A C9A U10A C44A, for which the “exon inclusion enrichment index” value was 1.49.

For G5C C6U G8C C9U U10C C18A C19A, the “exon inclusion enrichment index” value is 0.438.

On to G5A C6G U7G C9A A31C U32C, for which the “exon inclusion enrichment index” value is 0.00479.

On to G5C C6A U7C G8A U10A G11A, for which the “exon inclusion enrichment index” value is 0.832.

As for G5C C6A U7C G8A U10A G11U, the “exon inclusion enrichment index” value came out at 0.955.

For the variant G5A U7C G8A U10C G34U, the “exon inclusion enrichment index” value came to 0.607.

For the variant G5A U7C G8A U10C G26A, the “exon inclusion enrichment index” value is 3.08.

Consider G5A C6G U7G C9A A35U, for which the “exon inclusion enrichment index” value turned out to be 0.000728.

Turning to G5C C6G U7C U10C C24G A25C, the “exon inclusion enrichment index” value turned out to be 4.6.

Turning to G48A, the “exon inclusion enrichment index” value is 0.46.

For G2A G5A C6U U7A G8U C9A, the “exon inclusion enrichment index” value stood at 0.211.

As to A31U U32A, the “exon inclusion enrichment index” value is 0.00762.

Regarding G5A C6U U7A G8U C9U U10G, the “exon inclusion enrichment index” value was determined as 0.0345.

C6G C9A U10C: the “exon inclusion enrichment index” value worked out at 1.01.

With G5C C6U G8C C9U U10C C24G A25G, the “exon inclusion enrichment index” value amounted to 0.981.

G5C C6G U7C U10C A23G C24A: the “exon inclusion enrichment index” value worked out at 4.41.

Turning to C6A U7C C9A U10C A45G G46U, the “exon inclusion enrichment index” value came to 2.89.

G5U G8U C9U G13U A14C: the “exon inclusion enrichment index” value came to 0.0727.

As to C6A U7C C9A U10C A39G A40G, the “exon inclusion enrichment index” value turned out to be 0.569.

On to G5U G8U C9U C44A A45G, for which the “exon inclusion enrichment index” value was determined as 0.326.

For U4A G5A C6A U7C C9A U10C, the “exon inclusion enrichment index” value turned out to be 2.23.

Take C6A U7C C9A U10C A39C A40G: the “exon inclusion enrichment index” value worked out at 3.55.

Consider G5A U7C G8A U10C G33C G34U, for which the “exon inclusion enrichment index” value was found to be 1.72.

For the variant G5A U7C G8A U10C A23G C24A, the “exon inclusion enrichment index” value is 3.5.

On to G5C C6A U7C G8A U10A U17G C18A, for which the “exon inclusion enrichment index” value amounted to 0.109.

Regarding G5A C6G U7G C9A G12A, the “exon inclusion enrichment index” value came out at 0.000801.

Consider U4C G5A C6G U7C U10C, for which the “exon inclusion enrichment index” value was 3.53.

For C6A U7A C9A U10A G15C C16A, the “exon inclusion enrichment index” value was determined as 0.525.

Turning to G5C C6U G8C C9U U10C G43U, the “exon inclusion enrichment index” value worked out at 1.51.

As to A30U A31G, the “exon inclusion enrichment index” value was 0.155.

G5C C6G U7C U10C A31G U32G: the “exon inclusion enrichment index” value is 2.67.

With G38A A39G, the “exon inclusion enrichment index” value stood at 0.186.

As to G5A C6G U7G C9A U17A C18A, the “exon inclusion enrichment index” value worked out at 0.00127.

As to G5A C6G U7G C9A G15U C16A, the “exon inclusion enrichment index” value was 0.00611.

For the variant U10A G11U, the “exon inclusion enrichment index” value worked out at 2.73.

Consider G5U G8U C9U G26A, for which the “exon inclusion enrichment index” value is 0.201.

In the case of G5U G8U C9U G38C A39U, the “exon inclusion enrichment index” value is 0.00329.

Turning to C6A U7C C9A U10C A23U C24G, the “exon inclusion enrichment index” value was determined as 3.98.

Regarding C6A U7C C9G U10C, the “exon inclusion enrichment index” value turned out to be 2.55.

As to G5C C6U G8C C9U U10C A40C G41A, the “exon inclusion enrichment index” value amounted to 0.768.

In the case of G5C C6A U7C G8A U10A A25G, the “exon inclusion enrichment index” value was found to be 0.601.

For the variant G5A U7C G8C C9G U10C, the “exon inclusion enrichment index” value was 1.58.

Take G5C C6G U7C U10C C16G U17C: the “exon inclusion enrichment index” value worked out at 2.62.

For G5U G8U C9U A35U C36A, the “exon inclusion enrichment index” value amounted to 0.00069.

For the variant C6A U7C C9A U10C A39U A40G, the “exon inclusion enrichment index” value came to 1.39.

G5A C6G U7G C9A A14G G15A: the “exon inclusion enrichment index” value is 0.00342.

In the case of C6A U7C C9A U10C C44U A45U, the “exon inclusion enrichment index” value worked out at 2.71.

On to C6A U7A C9A U10A G38C A39C, for which the “exon inclusion enrichment index” value was determined as 0.874.

As to G5C C6U G8C C9U U10C A39C A40U, the “exon inclusion enrichment index” value was 1.13.

G5U G8U C9U G42C G43C: the “exon inclusion enrichment index” value was 0.708.

Take G5C C6A U7C G8A C9A U10G: the “exon inclusion enrichment index” value came to 0.428.

Take G5A U7C G8A U10C A47G G48A: the “exon inclusion enrichment index” value came to 1.37.

Turning to A45G G46A, the “exon inclusion enrichment index” value worked out at 0.84.

As for G5C C6A U7C G8A U10A A37U, the “exon inclusion enrichment index” value was 0.0984.

G5C C6A U7C G8A U10A A37C: the “exon inclusion enrichment index” value worked out at 0.426.

In the case of G5C C6A U7C G8A U10A A37G, the “exon inclusion enrichment index” value came to 0.237.

For the variant G5C C6A U7C G8A U10A C44U, the “exon inclusion enrichment index” value was determined as 0.0254.
